Data reported in patent US10052364B2, “Osteocalcin as a treatment for cognitive disorders” (THE TRUSTEES OF COLUMBIA UNIVERSITY IN THE CITY OF NEW YORK, priority 2013, dated 2018).

Columns and labels:
[1] = system: brainstem and midbrain explants from WT and Gprc6a-/- mice; experiment: Gene expression (qPCR) in brainstem and midbrain explants; assay type: cell-based, mouse
Method: For gene expression studies, RNA was isolated from primary neurons or tissue using TRIZOL® (Invitrogen). cDNA synthesis was performed following a standard protocol from Invitrogen and qPCR analyses were done using specific quantitative PCR primers from SABiosciences (www.sabiosciences.com/RT2PCR.php).
Brains were dissected and incubated for 30 minutes in ice cold oxygenated artificial cerebrospinal fluid (ACSF). Brains were then sliced at 500 μm at the midbrain, −1.55 to −2.35 mm from the bregma, and at the level of the brainstem, from −4.04 to −4.48 mm and from −4.60 to −5.20 mm from the bregma, to include the median and dorsal raphe, respectively. These slices were incubated in ACSF for 1 h, constantly oxygenated (95% 02 and 5% CO2) for 4 h, after which they were treated with either osteocalcin (10 ng/ml) or PBS for four hours. Expression of Tph2, TH, GAD1, GAD2, and Ddc was measured by qPCR.
To determine if osteocalcin acts directly on neurons to modulate neurotransmitter synthesis, several types of assays were performed. First, brainstem and midbrain explants from WT and Gprc6a^−/− mice were generated. Brains were sliced (500 μm) at the level of the median and dorsal raphe of the brainstem (from −4.04 to −4.48 mm and from −4.60 to −5.20 mm, respectively), so that they would be enriched in serotonin-producing neurons, as well as at the level of substantia nigrae and ventral tegmental areas (VTA) of the midbrain (from −1.55 to −2.35 mm and from −2.55 to −3.25 mm, respectively). Enrichment in serotoninergic and catecholaminergic neurons in these explants was verified by their high Tph2 and Th expression. While leptin, used here as a positive control, reduced, as it should, Tph2 expression in WT or Gprc6a^−/− brainstem explants, osteocalcin (3 ng/ml) increased expression of this gene 2.5 fold in both WT and Gprc6a^−/− explants. (FIG. 3D). Additionally, osteocalcin increased Th expression in midbrain explants and decreased Gad1 expression in both WT and in Gprc6a^−/− hindbrain explants (FIG. 3D). Second, the cultured WT and Gprc6a^−/− mouse primary hindbrain neurons (MPHN) were treated with osteocalcin (3 ng/ml). […] Third, to further confirm that osteocalcin signals in neurons of the hindbrain, calcium flux in MPHN treated with undercarboxylated or carboxylated osteocalcin (FIG. 3F) was measured. […] Moreover, osteocalcin inhibits the action potential frequency of the GABAergic interneurons of the hindbrain (FIG. 3H).

WT mice [2] = experiment: ICV infusion in adult WT mice, D/LT and EPMT tests; assay type: in vivo, mouse; conditions: ICV 3 or 10 ng/hour for one month
Method: FIG. 8. Osteocalcin improves cognitive function in adult wild-type (WT) mice. Results from dark and light (DLT) and elevated plus maze tests (EPMT) performed in 3-month old WT mice infused ICV with vehicle (PBS) or Ocn (3, 10, 30 ng/hour) are shown. (A) DLT measuring the latency to enter, the number of entries, and the time spend in lit compartment. (B) EPMT measuring the number of entries into open arms and the time spend in lit compartments.
Each mouse was allowed to explore the apparatus for 5 min. Global activity was assessed by measuring the number of entries […] (David et al, 2009, Neuron 62:479-493). Anxiety was assessed by comparing the time spent in the open arms.
The test was performed in a quiet, darkened room. Mice were individually housed in cages containing a handful of bedding from their home cage and acclimated to the room at least 1 h before the test. Naïve mice were placed individually in the testing chamber in the dark compartment. The test was 5 min in duration, and time spent and number of entries in light compartments were recorded a highly trained observer, blind to the genotype of the mice. […]

WT mice [3] = experiment: Contextual Fear Conditioning after acute hippocampal injection; assay type: in vivo, mouse; conditions: for freezing behavior compared to controls, 24 hours after the initial shocks: 10 ng injected acutely in both hemispheres, n=4 per group
Method: FIG. 11. CREB activation by osteocalcin is functionally relevant. Contextual fear conditioning in 3.5 month old mice injected acutely with 10 ng recombinant uncarboxylated osteocalcin 24 hours prior to context exposure. 3 shocks of 0.55 mA were delivered to mice 1 min apart.
To determine whether these acute injections and corresponding activation of the CREB pathway are functionally relevant, Contextual Fear Conditioning (CFC), a hippocampus dependent task that assesses long term memory, was performed. Mice were injected acutely in both hemispheres with either PBS or 10 ng recombinant uncarboxylated osteocalcin.

B1: uncarboxylated osteocalcin: Recombinant osteocalcin bacterially produced, cleaved from the GST subunit; completely undercarboxylated at all three sites (protein, listed as Homo sapiens)
chain: MRALTLLALLALAALCIAGQAGAKPSGAESSKGAAFVSKQEGSEVVKRPRRYLYQWLGAPVPYPDPLEPRREVCELNPDCDELADHIGFQEAYRRFYGPV
modifications: uncarboxylated
notes: Recombinant osteocalcin bacterially produced, cleaved from the GST subunit; completely undercarboxylated at all three sites
Tph2 expression in brainstem explants ([1]; osteocalcin 3 ng/ml, WT and Gprc6a-/- explants): 2.5 fold
Gad1 expression in hindbrain explants ([1]; osteocalcin, WT and Gprc6a-/- hindbrain explants): decreased
Th expression in midbrain explants ([1]; osteocalcin, midbrain explants): increased
exploration of the lit compartment and open arms in D/LT and EPM tests (WT mice [2]; WT mice): increase in the exploration
anxiety-like behavior (D/LT and EPMT) (WT mice [2]; WT mice implanted at 2 months): decrease in anxiety-like behavior
% freezing on Day 1 (WT mice [3]; 10 ng injected 24 hours prior to context exposure, 3.5 month old mice): the same for both groups
freezing behavior compared to controls, 24 hours after the initial shocks (WT mice [3]): increased freezing behavior
freezing behavior compared to controls, 24 hours after the initial shocks (WT mice [3]; listed as recombinant uncarboxylated osteocalcin): increased freezing along with hyperexcitability
